Assay results published in US20260232827A1 (Zymeworks, published 2026).

Columns and labels:
human NaPi2a = target: T1, human NaPi2a (human, UniProt Q06495 1-639); assay: flow cytometry on HEK293-6e cells transfected with human NaPi2a, 24 h at 4 C, anti-human IgG Fc AF647
T1 construct: whole, on cells; also called Hu NaPi2a; SLC34A1
T1 sequence (looked up): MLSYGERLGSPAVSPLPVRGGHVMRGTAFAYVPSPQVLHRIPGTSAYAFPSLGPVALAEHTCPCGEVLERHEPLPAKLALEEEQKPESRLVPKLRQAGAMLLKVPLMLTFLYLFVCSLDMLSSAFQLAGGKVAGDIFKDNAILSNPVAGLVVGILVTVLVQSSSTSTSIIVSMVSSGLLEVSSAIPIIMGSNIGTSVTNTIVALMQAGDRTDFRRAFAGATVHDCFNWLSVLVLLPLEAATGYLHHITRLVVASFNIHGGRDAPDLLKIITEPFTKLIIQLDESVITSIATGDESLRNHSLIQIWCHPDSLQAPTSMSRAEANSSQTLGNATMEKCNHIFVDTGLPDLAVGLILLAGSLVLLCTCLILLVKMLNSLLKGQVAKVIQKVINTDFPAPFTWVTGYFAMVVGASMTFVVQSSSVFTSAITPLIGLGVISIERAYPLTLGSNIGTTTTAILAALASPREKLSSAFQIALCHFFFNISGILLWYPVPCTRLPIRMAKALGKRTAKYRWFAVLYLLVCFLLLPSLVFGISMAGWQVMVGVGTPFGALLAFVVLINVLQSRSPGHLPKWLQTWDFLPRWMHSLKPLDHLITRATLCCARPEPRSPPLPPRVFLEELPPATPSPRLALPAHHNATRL

[1] = target: T2, Construct 4 (chimeric human NaPi2b, swap in NaPi2c in 341-358) (human); assay: flow cytometry, transfected HEK293-6e cells, antibody 200 nM;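 note: cells incubated with antibody for 24 h at 4 °C, background taken as average MFI of unstained cells without primary antibody, at least 1,000 events per well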
T2 construct: also called CL_#13435

[2] = target: T3, Construct 1 (chimeric human NaPi2b, swap in NaPi2c in 239-259) (human); assay: as above
T3 construct: also called CL_#29914

[3] = target: T4, Construct 3 (chimeric human NaPi2b, swap in NaPi2c in 304-321) (human); assay: as above
T4 construct: also called CL_#29916

[4] = target: T5, Construct 2 (chimeric human NaPi2b, swap in NaPi2c in 280-301) (human); assay: as above
T5 construct: also called CL_#29915

[5] = target: T6, Construct 7 (human NaPi2b del 317-326) (human, UniProt O95436 1-690); assay: as above
T6 construct: also called CL_#29921
T6 sequence: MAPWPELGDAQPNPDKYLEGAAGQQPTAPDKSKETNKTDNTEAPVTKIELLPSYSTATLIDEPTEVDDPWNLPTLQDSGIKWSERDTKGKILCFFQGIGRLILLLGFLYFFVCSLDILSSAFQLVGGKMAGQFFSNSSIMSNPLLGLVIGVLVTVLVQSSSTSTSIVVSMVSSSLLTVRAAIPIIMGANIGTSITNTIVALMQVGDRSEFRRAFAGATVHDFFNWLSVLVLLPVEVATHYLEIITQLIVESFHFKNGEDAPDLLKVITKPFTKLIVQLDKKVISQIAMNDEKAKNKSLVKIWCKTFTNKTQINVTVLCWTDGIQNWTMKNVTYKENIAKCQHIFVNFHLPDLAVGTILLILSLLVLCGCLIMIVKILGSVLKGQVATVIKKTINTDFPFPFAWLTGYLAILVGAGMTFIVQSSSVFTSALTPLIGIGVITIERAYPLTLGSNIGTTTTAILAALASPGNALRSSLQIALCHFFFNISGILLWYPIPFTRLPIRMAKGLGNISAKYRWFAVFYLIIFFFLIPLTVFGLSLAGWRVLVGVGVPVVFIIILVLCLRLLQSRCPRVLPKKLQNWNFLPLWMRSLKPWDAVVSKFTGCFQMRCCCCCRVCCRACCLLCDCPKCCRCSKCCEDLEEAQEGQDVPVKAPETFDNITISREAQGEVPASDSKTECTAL

[6] = target: T5, Construct 2 (chimeric human NaPi2b, …); assay: flow cytometry, transfected HEK293-6e cells, antibody 20 nM
[7] = target: T7, Construct 6 (human NaPi2b del 317-333) (human, UniProt O95436 1-690); assay: as above
T7 construct: also called CL_#29919
T7 sequence: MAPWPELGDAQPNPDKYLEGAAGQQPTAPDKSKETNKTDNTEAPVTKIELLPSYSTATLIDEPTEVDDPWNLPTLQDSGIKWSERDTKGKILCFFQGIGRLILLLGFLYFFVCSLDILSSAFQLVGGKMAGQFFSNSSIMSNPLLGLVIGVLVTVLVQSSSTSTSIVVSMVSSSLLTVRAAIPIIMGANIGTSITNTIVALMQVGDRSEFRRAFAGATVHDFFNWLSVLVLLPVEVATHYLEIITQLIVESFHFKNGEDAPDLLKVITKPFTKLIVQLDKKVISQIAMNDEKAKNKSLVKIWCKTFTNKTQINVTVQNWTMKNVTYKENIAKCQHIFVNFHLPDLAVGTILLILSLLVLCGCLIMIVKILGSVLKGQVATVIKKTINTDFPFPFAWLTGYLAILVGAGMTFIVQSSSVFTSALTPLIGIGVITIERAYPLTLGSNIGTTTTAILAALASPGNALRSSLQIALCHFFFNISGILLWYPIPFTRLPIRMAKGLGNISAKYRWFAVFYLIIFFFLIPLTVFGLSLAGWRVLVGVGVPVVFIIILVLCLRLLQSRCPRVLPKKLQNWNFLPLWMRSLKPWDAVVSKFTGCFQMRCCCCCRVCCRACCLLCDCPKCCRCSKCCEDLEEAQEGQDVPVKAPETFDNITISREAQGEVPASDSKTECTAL

B1: v22277 (palivizumab, anti-RSV negative control, heterodimeric Fc) (antibody, human IgG1, kappa)
heavy 1: GQVTLRESGPALVKPTQTLTLTCTFSGFSLSTSGMSVGWIRQPPGKALEWLADIWWDDKKDYNPSLKSRLTISKDTSKNQVVLKVTNMDPADTATYYCARSMITNWYFDVWGAGTTVTVSSASTKGPSVFPLAPSSKSTSGGTAALGCLVKDYFPEPVTVSWNSGALTSGVHTFPAVLQSSGLYSLSSVVTVPSSSLGTQTYICNVNHKPSNTKVDKKVEPKSCDKTHTCPPCPAPELLGGPSVFLFPPKPKDTLMISRTPEVTCVVVDVSHEDPEVKFNWYVDGVEVHNAKTKPREEQYNSTYRVVSVLTVLHQDWLNGKEYKCKVSNKALPAPIEKTISKAKGQPREPQVYVYPPSRDELTKNQVSLTCLVKGFYPSDIAVEWESNGQPENNYKTTPPVLDSDGSFALVSKLTVDKSRWQQGNVFSCSVMHEALHNHYTQKSLSLSPG
heavy 2: not shown
light: GDIQMTQSPSTLSASVGDRVTITCKSQLSVGYMHWYQQKPGKAPKLLIYDTSKLASGVPSRFSGSGSGTEFTLTISSLQPDDFATYYCFQGSGYPFTFGGGTKLEIKRTVAAPSVFIFPPSDEQLKSGTASVVCLLNNFYPREAKVQWKVDNALQSGNSQESVTEQDSKDSTYSLSSTLTLSKADYEKHKVYACEVTHQGLSSPVTKSFNRGEC
notes: also called neg control
Human NaPi2a
  binding result: no binding (tested: 200 nM)

B2: v18993 (lifastuzumab), reference anti-NaPi2b antibody (antibody, human IgG1, kappa)
heavy 1: GEVQLVESGGGLVQPGGSLRLSCAASGFSFSDFAMSWVRQAPGKGLEWVATIGRVAFHTYYPDSMKGRFTISRDNSKNTLYLQMNSLRAEDTAVYYCARHRGFDVGHFDFWGQGTLVTVSSASTKGPSVFPLAPSSKSTSGGTAALGCLVKDYFPEPVTVSWNSGALTSGVHTFPAVLQSSGLYSLSSVVTVPSSSLGTQTYICNVNHKPSNTKVDKKVEPKSCDKTHTCPPCPAPELLGGPSVFLFPPKPKDTLMISRTPEVTCVVVDVSHEDPEVKFNWYVDGVEVHNAKTKPREEQYNSTYRVVSVLTVLHQDWLNGKEYKCKVSNKALPAPIEKTISKAKGQPREPQVYVYPPSRDELTKNQVSLTCLVKGFYPSDIAVEWESNGQPENNYKTTPPVLDSDGSFALVSKLTVDKSRWQQGNVFSCSVMHEALHNHYTQKSLSLSPG
heavy 2: not shown
light: GDIQMTQSPSSLSASVGDRVTITCRSSETLVHSSGNTYLEWYQQKPGKAPKLLIYRVSNRFSGVPSRFSGSGSGTDFTLTISSLQPEDFATYYCFQGSFNPLTFGQGTKVEIKRTVAAPSVFIFPPSDEQLKSGTASVVCLLNNFYPREAKVQWKVDNALQSGNSQESVTEQDSKDSTYSLSSTLTLSKADYEKHKVYACEVTHQGLSSPVTKSFNRGEC
Human NaPi2a
  binding result: no binding (tested: 200 nM)

B3: v38591 (humanized anti-NaPi2b antibody, wild-type Fc) (antibody, human IgG1, kappa)
heavy: not shown
light: DVQMTQSPSSLSASVGDRVTITCRASQDVYSYLNWYQQKPGKAVKLLIYYTSRLQSGVPSRFSGSGSGTDYTLTISSLQPEDFATYYCQQYNIFPWTFGQGTKLEIKRTVAAPSVFIFPPSDEQLKSGTASVVCLLNNFYPREAKVQWKVDNALQSGNSQESVTEQDSKDSTYSLSSTLTLSKADYEKHKVYACEVTHQGLSSPVTKSFNRGEC
notes: also called v38591 Wild-type; H1L2
Human NaPi2a
  binding result: no binding (tested: 200 nM)

B4: v38591 (humanized anti-NaPi2b antibody, H1L2, wild-type Fc, heavy chains with C-terminal lysine) (antibody, human IgG1, kappa)
heavy: not shown
light: B3 light
notes: Full-size human IgG1/kappa antibody; also called v38591 (wild-type Fc)
[1]
  Background-Subtracted AF647 Mean Fluorescence Intensity: 933 MFI
[2]
  Background-Subtracted AF647 Mean Fluorescence Intensity: 2160 MFI
[3]
  Background-Subtracted AF647 Mean Fluorescence Intensity: 810 MFI
[4]
  Background-Subtracted AF647 Mean Fluorescence Intensity: 1410 MFI
[5]
  Background-Subtracted AF647 Mean Fluorescence Intensity: 626 MFI
[6]
  Background-Subtracted AF647 Mean Fluorescence Intensity: 1340 MFI
[7]
  Background-Subtracted AF647 Mean Fluorescence Intensity: -7 MFI

B5: v18992 (MX35), reference anti-NaPi2b antibody (antibody, human IgG1, kappa)
heavy 1: GQVQLVQSGAEVVKPGASVKMSCKASGYTFTGYNIHWVKQAPGQGLEWIGAIYPGNGDTSYKQKFRGRATLTADTSTSTVYMELSSLRSEDSAVYYCARGETARATFAYWGQGTLVTVSSASTKGPSVFPLAPSSKSTSGGTAALGCLVKDYFPEPVTVSWNSGALTSGVHTFPAVLQSSGLYSLSSVVTVPSSSLGTQTYICNVNHKPSNTKVDKKVEPKSCDKTHTCPPCPAPELLGGPSVFLFPPKPKDTLMISRTPEVTCVVVDVSHEDPEVKFNWYVDGVEVHNAKTKPREEQYNSTYRVVSVLTVLHQDWLNGKEYKCKVSNKALPAPIEKTISKAKGQPREPQVYVYPPSRDELTKNQVSLTCLVKGFYPSDIAVEWESNGQPENNYKTTPPVLDSDGSFALVSKLTVDKSRWQQGNVFSCSVMHEALHNHYTQKSLSLSPG
heavy 2: not shown
light: GDIQMTQSPSSLSASVGDRVTITCSASQDIGNFLNWYQQKPGKTVKVLIYYTSSLYSGVPSRFSGSGSGTDYTLTISSLQPEDFATYYCQQYSKLPLTFGQGTKLELKRTVAAPSVFIFPPSDEQLKSGTASVVCLLNNFYPREAKVQWKVDNALQSGNSQESVTEQDSKDSTYSLSSTLTLSKADYEKHKVYACEVTHQGLSSPVTKSFNRGEC
Human NaPi2a
  binding result: no binding (tested: 200 nM)

B6: MX35 (v18992), reference anti-NaPi2b antibody (antibody, human IgG1, kappa)
heavy 1: B5 heavy 1
heavy 2: not shown
light: B5 light
[1]
  Background-Subtracted AF647 Mean Fluorescence Intensity: 764 MFI
[2]
  Background-Subtracted AF647 Mean Fluorescence Intensity: 1720 MFI
[3]
  Background-Subtracted AF647 Mean Fluorescence Intensity: 802 MFI
[4]
  Background-Subtracted AF647 Mean Fluorescence Intensity: 1360 MFI
[5]
  Background-Subtracted AF647 Mean Fluorescence Intensity: 298 MFI
[6]
  Background-Subtracted AF647 Mean Fluorescence Intensity: 1250 MFI
[7]
  Background-Subtracted AF647 Mean Fluorescence Intensity: 67 MFI
